# Patent US20150111836
# Molecular target: purified recombinant N-terminal His6 tagged HIV-1 HXBII Vif protein (E. coli)
protein,measurement,value
"purified recombinant A3G-His6 (human APOBEC3G with C-terminal Myc-His6 tag, expressed in 293T cells) (protein) MKPHFRNTVERMYRDTFSYNFYNRPILSRRNTVWLCYEVKTKGPSRPPLDAKIFRGQVYSELKYHPEMRFFHWFSKWRKLHRDQEYEVTWYISWSPCTKCTRDMATFLAEDPKVTLTIFVARLYYFWDPDYQEALRSLCQKRDGPRATMKIMNYDEFQHCWSKFVYSQRELFEPWNNLPKYYILLHIMLGEILRHSMDPPTFTFNFNNEPWVRGRHETYLCYEVERMHNDTWVLLNQRRGFLCNQAPHKHGFLEGRHAELCFLDVIPFWKLDLDQDYRVTCFTSWSPCFSCAQEMAKFISKNKHVSLCIFTARIYDDQGRCQEGLRTLAEAGAKISIMTYSEFKHCWDTFVDHQGCPFQPWDGLDEHSQDLSGRLRAILQNQEN",A3G-mediated deamination of the ss-deoxyoligonucleotide substrate,Vif inhibits A3G deaminase activity in a dose-dependent manner
